Reference: US12241094B2, “Phenazine degrading agents and related compositions, methods and systems for interfering with viability of bacteria” (priority 2016, dated 2025)
“Also recorded” adds a separate entry of the source. Read-outs that look alike come from different tables or passages of the source.

Test: PYO demethylation by purified PodA30-162 and mutants (spectrophotometric/HPLC)
Assay type: biochemical
Method: Enzyme activity and analysis. PYO demethylation by PodA30-162 was first determined by HPLC analysis as described previously (6, 9). To detect formaldehyde evolution, 150 nM protein was mixed with 50 μM PYO in 1 mL of 20 mM Tris pH 7.6 amended with 200 μL Nash reagent (2 M ammonium acetate, 50 mM acetic acid, 20 mM acetylacetone) and incubated at 55° C. until the reaction proceeded to completion (37, 38). The products were determined by HPLC using the same method as used for phenazine quantification. To monitor the formation of reduced phenazine, protein and 50 μM PYO were placed into an anaerobic chamber (Coy Laboratory Products) under an atmosphere of H2/N2 (5:95) and left overnight before allowing the reaction to proceed. To generate reduced PYO and 1-OH-PHZ, 50 μM were mixed with 1 mM sodium dithionite. The formation of reduced phenazine products was assayed visually under UV illumination (39). A BioTek Synergy 4 microplate reader (BioTek) plate reader in the anaerobic chamber was used to measure the emission spectrum of products with excitation at 250 nm. To determine the activity of PodA30-162 in the presence of glycerol, salts, or varying pH, 30 nM protein was suspended in 500 μL buffer, 40 μM PYO was mixed with 2× solution containing the buffer of interest (500 μL), and solutions were preheated to 30 C. For pH range measurements, the following buffers were used (40 mM, adjusted with KOH): acetic acid, pH 4.9; MES, pH 5.4 and 5.7; HEPES, pH 6.1; Tris, pH 6.9 and 7.5; Bicine, pH 7.8, 8.3 and 8.7; CHES, pH 9.4. To measure reaction rates, cuvettes containing the 2×PYO solution were placed in a Evolution 260Bio UV-Vis spectrophotometer (Thermo Scientific) and 500 μL of 30 nM protein was added at time 0 (15 nM protein and 20 μM PYO, final concentration). Reaction progress was monitored by measuring absorbance at 313 nm (40) every 0.5 seconds for 5 minutes. To measure kinetic parameters (kcat, Km) 15 nM protein was used in a reaction buffer of Bicine, pH 7.8; reactions were monitored as before with measurements every 0.2 seconds. The rate from the first 10 seconds of the reaction was used for the determination of kinetic parameters. Kinetic parameters were calculated in Microsoft Excel using the Solver plug-in and fitting data to ideal Michaelis-Menton plots with non-linear regression of experimental data (41). For measurements of the rate of methoxy-PMS demethylation, 300 nM protein was used and methoxy-PMS loss from the reaction mixture was monitored at 500 nm wavelength. Methoxy-PMS was purchased from TCI America. For assays with mutant proteins, 60 nM protein was used. The stimulatory effects of flavin or 2-oxoglutarate addition was determined by adding 25 μM flavin or 2-oxoglutarate to 20 μM PYO and 15 nM PodA30-162 and monitoring the reaction. Experiments testing alternative substrates were carried out using 1 mL reaction volumes containing 20 mM Tris (pH 7.6) and 50 μg mL^−1 PodA30-162. Alternative substrates tested were 10-methylphenothiazine (AlfaAesar), phenazine methosulfate (AlfaAesar), methoxyphenazine methosulfate (TCI America), and 4-keto-N-ethylphenazine. 4-keto-N-ethylphenazine was synthesized from phenazine ethosulfate (Sigma-Aldrich) by incubating under fluorescent light overnight followed by purification by HPLC as described (6, 42). As phenazine methosulfate is light sensitive and spontaneously converts to PYO in the presence of light, all reactions were carried out in the dark, and activity was assessed by end point analysis by HPLC after 4 hours (9).

B1: PodA30-162: truncated pyocyanin demethylase encoded by MFORT_14352 of Mycobacterium fortuitum lacking N-terminal helix, SEQ ID NO: 2 (protein, listed as Mycobacterium fortuitum)
chain: MDGRGGRSTTEPVTMTLDVKNDQVAKHDFGKPGMDVGDMDIFSDILSVDGKQVGYDGGACFFTNVTPDNPMTYCELTIHLDAGEIFARSLTPHTLAPFTMAITGGTGEYANSKGELTVSGVATPDEKYELKLTKAENLYFQ
**Q.** With B1 as the molecule, how does the “activity in presence of glycerol or KCl or NaCl salts” value (20 μM PYO, 15 nM PodA30-162) read?
**A.** minimally inhibited

**Q.** What about the “pH regime over which enzyme operates” value (20 μM PYO, 15 nM PodA30-162) of the same molecule?
**A.** 4.9-8.7 pH

**Q.** And the “pH above which activity is lost” value (20 μM PYO, 15 nM PodA30-162, 5 minutes)?
**A.** > 9 pH

**Q.** What about the “activity in presence of flavins (FMN, FAD) or 2-oxoglutarate” value (25 μM, 15 nM PodA30-162) of the same molecule?
**A.** not stimulated

**Q.** What about the “activity under anoxic conditions” value (50 μM PYO, anaerobic chamber) of the same molecule?
**A.** functions under anoxic conditions; also recorded: active

**Q.** And the “salt concentrations over which enzyme operates” value (KCl or NaCl)?
**A.** 0 to 400 mM

**Q.** What about the kcat (PYO substrate, 15 nM protein, Bicine pH 7.8) of the same molecule?
**A.** 1.20 ± 0.07 s⁻¹

**Q.** What about the Km (PYO substrate, 15 nM protein, Bicine pH 7.8, read-out: Km) of the same molecule?
**A.** < 1 µM

**Q.** And the Km (best fit to Michaelis-Menton plot, 15 nM PodA30-162, PYO detection limit 0.5 μM, read-out: apparent Km)?
**A.** < 1 µM
